# Results from US10881709B2, “Immune system modulators and compositions” (Canimguide Therapeutics AB, priority 2015, dated 2021).
# Tested on: PBMCs
# Assay: IL-2 induced proliferation of PBMCs, 3H-thymidine incorporation (human ex vivo model)
# Assay type: cell-based
# Conditions: PBMCs from healthy control samples, 7 days, 3H-thymidine
# Method: 100 μl of RPMI1640 supplemented with 200 IU/ml penicillin, […] streptomycin, 4 mM L-glutamine (all from Sigma® Chemical Co. MO, US) and 20% heat-inactivated human serum (autologous or from cancer patients) were added to uncoated, HSA or HSA/IgG coated tissue culture microtiter plates. PBMC, isolated from healthy individuals or patients with metastatic renal cell carcinoma, were diluted in RPMI/2% HSA at a concentration of 5×10^5/ml and 100 μl were added to the microtiter wells. Interleukin-2 (IL-2, Proleukin®, Chiron®, NL), at a final concentration of 120 IU/well, was added to some wells. Cells were cultured for 7 days in a humidified, 5% CO2-atmosphere at 37° C. Proliferation was assayed by incorporation of 1.6 μCi/well of [^3H]-thymidine (Amersham® Int., UK) during the last 18 hrs. Mean values of dpm (disintegrations per minute) of triplicates were used for the calculations.
# Cultures for IL-2 induced proliferation was set up with PBMC from healthy donors and autologous serum as described above with the exception that PBMC were first pre-incubated for 30 min at room temperature with the indicated albumin peptides at a concentration of 10 μg/ml.
# Round-bottomed, 96-well tissue culture plates (Costar®, Corning® Inc. NY, US) were pre-coated with HSA only or HSA and pooled human IgG for intravenous injection (Gammagard®, Baxter AS, DK) as follows; HSA was diluted in RPMI1640 without supplements to a concentration of 10 mg/ml. A mixture of 1 mg/ml IgG in a solution of 9 mg/ml HSA in RPMI (HSA/IgG) was also prepared. 200 μl of HSA or HSA/IgG were then added to each well of the plate. The plates were incubated at 4° C. for 30 minutes after which the wells were washed twice with 200 μl of RPMI1640. The coated plates were used immediately. 100 μl of RPMI1640 supplemented with 200 IU/ml penicillin, […] streptomycin, 4 mM L-glutamine (all from Sigma® Chemical Co. MO, US) and 20% heat-inactivated human serum (autologous) were added to the HSA or HSA/IgG coated tissue culture microtiter wells. PBMC, isolated from healthy individuals, were diluted in RPMI/2% HSA and peptides were added directly to the cell suspension at a concentration of 10 μg/ml. One hundred μl of this cell suspension (5×10^4 lymphocytes) was then added per well providing a final concentration of 5 μg/ml peptide per well. IL-2 (Proleukin®, Chiron®, NL), at a final concentration of 120 IU/well, was added to the wells. Cells were cultured for 7 days in a humidified, 5% CO2-atmosphere at 37° C. Proliferation was assayed by incorporation of 1.6 μCi/well of [^3H]-thymidine (Amersham® Int., UK) during the last 18 hrs. Mean values of dpm (disintegrations per minute) of triplicates were used for the calculations.
# The model included PBMCs isolated from venous blood samples from healthy blood donors (control samples) or cancer patients. One hundred pI of culture medium (RPMI 1640 Dutch's modification (Gibco®, InVitrogenAB®, Stockholm, Sweden) supplemented with 200 IV/ml penicillin, 200 ug/ml streptomycin, 4 mM L-glutamine (all from Sigma® Chemical Co. MO, US) and 20% heat-inactivated human serum) were added to roundbottomed, 96-well tissue culture plates (Costar®, Corning® Inc. NY, US). […] Control sample wells without IL-2 was set up in parallel. […]
# The effect of different peptides on IL-2 induced proliferation was analyzed in the human ex vivo model, using PBMCs from healthy control samples. […] Proliferation was measured as incorporation of ^3H-thymidine during the final 18 hours. […]
row,Substance,inhibition of IL-2 induced proliferation
1,KVPQVSTPTLVEVSR (listed as Homo sapiens) [P3029],none

# Tested on: PBMCs from healthy control person
# Assay: PBMC activation (CD69/CD71, flow cytometry) in RPMI plus 10% human AB serum
# Assay type: cell-based
# Conditions: 40 μg/mL, 24 hours, healthy PBMCs
# Method: The activity of peptide P28R (SEQ ID NO: 2) and modifications of P28R was studied in a human ex vivo model using PBMCs in short term cultures, 24 or 48 hours. Effects of P28R and modifications of P28R on PBMCs from a healthy control person were studied. Activation was measured as percentage of cells with enhanced marker CD69 using flow cytometry. PBMCs were incubated with the peptides (40 μg/mL) for 24 hours in RPMI plus 10% human AB serum.
# As observed in Example 37, P28R (SEQ ID NO: 2) can stimulate PBMCs from healthy controls in short term cultures when RPMI plus 10% normal human AB serum is used as culture medium. Truncations of P28R were also assessed for their ability to activate PBMCs. PBMCs were incubated with the peptides (40 μg/mL) for 24 hours in RPMI plus 10% human AB serum. PBMC activation was measured as percent cells with enhanced expression of either CD69 (FIG. 42A) or CD71 (FIG. 42B) using flow cytometry. Two experiments were performed for each peptide.
# Effects of modified peptides on activation of PBMCs from healthy control person were assessed. Activation was determined as percentage of cells with enhanced marker CD69 or CD71 using flow cytometry. PBMCs were incubated with the peptides (40 μg/mL) for 48 hours in RPMI plus 10% human AB serum.
row,Substance,"PBMC activation, enhanced CD69 or CD71"
1,KKLDTFFPKLSLFTER [SEQ ID NO: 329],did not activate

# Same assay, conditions: 40 μg/mL, 24 hours, healthy control person
row,Substance,"PBMC activation, cells with enhanced CD69"
1,KSLDTFFVKLSLFTER [SEQ ID NO: 510],did not stimulate
2,KKLDTFFVKLSLFTFR [SEQ ID NO: 571],did not stimulate
3,KKLDTVMVKLQLMTER [compound 30680],induced activation
4,KKLDTFFVNLSLFTER [SEQ ID NO: 518],did not stimulate
5,KKLDTFFVDLSLFTER [SEQ ID NO: 569],did not stimulate

# Same assay, conditions: 40 μg/mL, 48 hours, healthy control person
row,Substance,"PBMC activation, enhanced CD69 and CD71"
1,RKLDTFFVKLSLFTERRR [compound 32814],stimulatory effect in short term cultures similar to that of P28R

# Molecular target: P3028 (SEQ ID NO: 185) (Homo sapiens, UniProt P02768)
# Assay: PEPSCAN ELISA (rampo assay): binding of His-tagged P3028 to immobilised peptides
# Conditions: truncations, deletions, glycine substitutions
# Method: Based on the structure of peptide P28R, additional peptides were identified that bind to P3028. The additional binders included deletions, truncations, and or amino acid substitutions of peptide P28R. Binding of peptides to P3028 was assayed using PEPSCAN technology. PEPSCAN technology, or “rampo” assays are biochemical binding assays, details of which are provided below:
# A peptide microarray screening technology was used to measure binding of P28R (SEQ ID NO: 2) and variants of P28R to P3028 (SEQ ID NO: 185). In this technology libraries of synthetic peptides are synthesized and covalently linked onto polypropylene microarray chips. The linear peptides were synthesized onto credit-card format polypropylene cards (455 peptide formats/card) as described by (Timmerman et al., 2004) using standard Fmoc-chemistry using hexamethylenediamine (HMDA) as linker and deprotection using trifluoroacetic acid (TFA) with scavengers.
# The binding of His-tagged P3028 to each peptide on the card was tested in an ELISA assay. The 455-well credit card format polypropylene cards containing the covalently linked peptides were incubated with His-tagged P3028 peptide (PGE73) solution consisting of 0.5 μg/mL diluted in blocking solution (4% horse serum, 5% ovalbumin (w/v) in PBS/1% Tween). After washing, the peptides were incubated with a monoclonal mouse anti-His-tag antibody (Novagen®, 70796-3, diluted 1/1000 in the incubation buffer) and subsequently after washing with a rabbit-anti-mouse antibody peroxidase (Rampo) conjugate (Southern Biotech®, 6175-05, diluted 1/1000), for one hour at 25° C. After washing, the peroxidase substrate 2,2′-azine-di-3-ethylbenzthiazoline sulfonate (ABTS) and 2 μL of 3% H2O2 were added. The binding capacity of the mAb was measured as a color development at 405 nm (optical density, OD405). The color development was quantified with a charge-coupled device (CCD)—camera and an image processing system.
# The OD405-values obtained by a CCD-camera was considered as raw data values (“rampo values,” “rampo units,” or “rampo scores”). The values mostly ranged from 0 to 3000, a log scale similar to 1 to 3 of a standard 96-well plate ELISA-reader. First the CCD-camera made a picture of the card before peroxidase coloring and then again a picture after the peroxidase coloring. […] These values were copied into an excel file and labeled as a raw data file. One follow-up manipulation was allowed. Sometimes a well can contain an air-bubble resulting in a false-positive value. If manual inspection of the cards detect an air-bubble the value are set to 0 for that well.
# A library of peptides tested for binding to peptide P3028 included all substitutions for each position of the peptide P28R (SEQ ID NO: 2) (i.e., 19 substitutions for each position). The results of the binding experiments are shown in FIGS. 27, 28, 29 and 30 and Table 5.1. […] P28R had rampo values ranging between 262 and 460 with a mean value of 370. […] In addition, M and S in position 7 (SEQ ID NOs: 9 and 10, respectively), and Q and M in position 11 (SEQ ID NOs: 15 and 16, respectively) all have rampo values over 700.
# For each position of P28R, the rampo scores of the group of 19 different peptides containing an L-amino acid substitution were compared to the rampo score of a control sample P28R peptide (SEQ ID NO: 2) for that group. Single-amino acid substitutions having a rampo score greater than or substantially equivalent to P28R were identified. As used herein, a rampo score “substantially equivalent to P28R” is a rampo score that is at least 98% of the rampo score of P28R. Thus, variants of P28R having equivalent or better binding to P3028 were identified.
row,Substance,rampo score / affinity to P3028 compared with P28R
1,KKLDGFFVKLSLFTER [SEQ ID NO: 95],comparable to P28R
2,KKLDTFGVKLSLFTER [SEQ ID NO: 96],comparable to P28R
3,KKLDTFVKLSLFTER [SEQ ID NO: 65],"comparable to, or higher than peptide P28R"
4,KKFFVKLSLFTER [SEQ ID NO: 76],"comparable to, or higher than peptide P28R"
5,KKLDTFFVKLGLFTER [SEQ ID NO: 99],comparable to P28R
6,KKLDTFFVGLSLFTER [SEQ ID NO: 98],comparable to P28R
7,KKLTFFVKLSLFTER [SEQ ID NO: 64],"comparable to, or higher than peptide P28R"
8,KKLDTFFVKLSLFTE [SEQ ID NO: 34],retained a high affinity
9,KKGDTFFVKLSLFTER [SEQ ID NO: 287],comparable to P28R
10,FVKL [SEQ ID NO: 63],comparable rampo score
11,KKLDTFFVKLSFTER [SEQ ID NO: 68],"comparable to, or higher than peptide P28R"
